Source: paper PMC12589211, “Development of lisinopril radioconjugates for nuclear imaging of the angiotensin converting enzyme” (European Journal of Nuclear Medicine and Molecular Imaging, 2025)

What was measured:
in vivo = details: female, mouse, iv, 3 MBq; for tissue uptake at 1 h / tissue uptake at 3 h: total radioactivity
Description: All applicable international, national, and/or institutional guidelines for the care and use of laboratory animals were followed and the animal experiments were carried out according to the guidelines of the Swiss Regulations for Animal Welfare. Preclinical studies were ethically approved by the Cantonal Committee of Animal Experimentation and permitted by the responsible cantonal authorities (License N° 75743). Five-week-old female Crl: CD1-Foxn^nu (CD1/nude) mice were obtained from Charles River Laboratories (Sulzfeld, Germany) and fed with standard rodent chow ad libitum. The mice were subcutaneously inoculated with HEK-ACE (8 × 10^6 cells in 100 µL PBS) on the left shoulder and approximately one week later with HEK-ACE2 cells (4–6 × 10^6 cells in 100 µL PBS) on the right shoulder. Imaging and biodistribution studies were performed 2‒4 weeks later when the xenografts reached a size of 100–300 mm^3.
Mice were intravenously injected with 3 MBq [^67Ga]Ga-DOTA-LIS-02 or 3 MBq [^67Ga]Ga-NODAGA-LIS-02 (0.5 nmol, 100 µL) or 3 MBq [^44Sc]Sc-DOTA-LIS-02 (1 nmol, 100 µL) diluted in saline containing 0.05% bovine serum albumin (BSA). The mice were sacrificed 1 h and 3 h after administration of the respective radioconjugate. Selected tissues and organs were collected, weighed and counted for activity using the γ-counter. The results were listed as a percentage of the injected activity per gram of tissue mass (% IA/g), using counts of a defined volume of the original injection solution measured at the same time to calculate decay-corrected values. Statistical analysis was performed by applying a regular one-way ANOVA test with a Tukey’s multiple comparison post‐hoc test to compare the data of the radioconjugates. A p-value of < 0.05 was considered as statistically significant (GraphPad Prism software, version 8.3.1).

[1] = system: human blood plasma proteins; test: in vitro; assay type: in vitro ADME; details: 30 min, 0.1 µM
Description: (§1) The n-octanol/phosphate buffered saline (PBS) distribution coefficients (logD values) of the radioconjugates (20 MBq/nmol) were determined using the shake-flask method, as previously reported (Supplementary material). The binding affinity of the radioconjugates (20 MBq/nmol) to serum proteins was assessed using an ultrafiltration assay as previously reported (Supplementary Material). Methods: The plasma protein binding of the radioconjugates (20 MBq/nmol) was assessed using mouse blood plasma (Lot N°: 32321, Rockland Immunochemicals, Inc., USA,; concentration of mouse serum albumin (MSA): ⁓550 µM) and human blood plasma (Stiftung Blutspende SRK Aargau-Solothurn, Switzerland; concentration of human serum albumin (HSA): ⁓800 µM), respectively. After incubation in mouse and human blood plasma (0.3 MBq in 150 μL) for 30 min at 37 °C, the samples were cooled on ice and diluted with ice-cold PBS (150 μL). The plasma protein-bound fraction was separated from the free (plasma protein-unbound) fraction of each sample by means of Amicon centrifugal filters (Amicon Ultra, 0.5 mL, Merck Millipore; cutoff 10 kDa) by ultrafiltration using a centrifuge (14000 rcf, 30 min at 4 °C). Afterwards, the filter inserts were inverted and centrifuged again (200 rcf) for 3 min to recover the protein-bound fraction of the radioconjugates. The activities of the free radioconjugates in the filtrate, as well as in the filter insert and the plasma protein-bound radioconjugate (bound), were counted for activity separately using a γ-counter (Wallac Wizard 1480, PerkinElmer). The total activity (total) was determined as the sum of the activities in the filtrate, filter insert, and protein-bound fractions. The percentage of radioconjugate bound to MSA and HSA was calculated as Abound/Atotal*100. The results were presented as average ± SD of 3 independent experiments.

[2] = system: mouse blood plasma proteins; test: in vitro; assay type: in vitro ADME; details: 30 min, 0.1 µM
Description: as §1

physchem = assay type: physicochemical; details: pH 7.4, logD value (n-octanol/PBS distribution coefficient)
Description: The n-octanol/phosphate buffered saline (PBS) distribution coefficients (logD values) of the radioconjugates (20 MBq/nmol) were determined using the shake-flask method, as previously reported (Supplementary material). The binding affinity of the radioconjugates (20 MBq/nmol) to serum proteins was assessed using an ultrafiltration assay as previously reported (Supplementary Material). Methods: A fixed amount of the respective radioconjugate (0.5 MBq, 25 µL) was added to radio-immunoassay (RIA) tubes containing a mixture of PBS pH 7.4 (1475 µL) and n-octanol (1500 µL). After vortexing vigorously for 1 min, the tubes were centrifuged (560 rcf) for 6 min to obtain phase separation. The activity in the organic and aqueous phases was determined using a γ-counter (Wallac Wizard 1480, PerkinElmer). The distribution coefficients were expressed as the logarithm of the ratio of counts per minute (cpm) measured in the n-octanol phase to the cpm measured in the PBS pH 7.4 phase and indicated as the average of three independent measurements ± SD, each performed with five replicates.

in vitro = in vitro ADME; details: plasma
Description: as §1

[3] = CD1/nude (Crl:CD1-Foxn nu), 1 h
[4] = CD1/nude (Crl:CD1-Foxn nu), 3 h
[5] = Crl:CD1-Foxn^nu (CD1/nude), 1 h
[6] = Crl:CD1-Foxn^nu (CD1/nude), 3 h
[7] = human, Fraction bound to human blood plasma proteins
[8] = mouse, Fraction bound to mouse blood plasma proteins
[9] = CD1/nude (Crl:CD1-Foxn nu), Biodistribution, Bone
[10] = CD1/nude (Crl:CD1-Foxn nu), Biodistribution, HEK-ACE xgft
[11] = CD1/nude (Crl:CD1-Foxn nu), Biodistribution, Muscle
[12] = CD1/nude (Crl:CD1-Foxn nu), Biodistribution, Salivary glands
[13] = CD1/nude (Crl:CD1-Foxn nu), Biodistribution, Stomach
[14] = Crl:CD1-Foxn^nu (CD1/nude), Biodistribution, Blood
[15] = Crl:CD1-Foxn^nu (CD1/nude), Biodistribution, Heart
[16] = Crl:CD1-Foxn^nu (CD1/nude), Biodistribution, Kidneys
[17] = Crl:CD1-Foxn^nu (CD1/nude), Biodistribution, Lung
[18] = Crl:CD1-Foxn^nu (CD1/nude), Biodistribution, Spleen
[19] = CD1/nude (Crl:CD1-Foxn nu), Biodistribution, Intestines
[20] = CD1/nude (Crl:CD1-Foxn nu), Biodistribution, Liver

## O=C(O)CN1CCN(CC(=O)O)CCN(CC(=O)NCCCC[C@H](NC(=O)CCCCCCCNC(=O)NCCCC[C@H](N[C@@H](CCc2ccccc2)C(=O)O)C(=O)N2CCC[C@H]2C(=O)O)C(=O)O)CCN(CC(=O)O)CC1 [[^44Sc]Sc-DOTA-LIS-02] [metal not drawn]
In vivo; [3]
  Biodistribution, Blood: 0.24 ± 0.03 %IA/g
  Biodistribution, Bone: 0.17 ± 0.02 %IA/g
  Biodistribution, Intestines: 0.16 ± 0.02 %IA/g
  Biodistribution, Liver: 0.14 ± 0.01 %IA/g
  Biodistribution, Muscle: 0.16 ± 0.02 %IA/g
  Biodistribution, Salivary glands: 0.19 ± 0.02 %IA/g
  Biodistribution, Stomach: 0.22 ± 0.15 %IA/g
In vivo; [4]
  Biodistribution, Bone: 0.07 ± 0.03 %IA/g
  Biodistribution, Intestines: 0.05 ± 0.01 %IA/g
  Biodistribution, Liver: 0.09 ± 0.01 %IA/g
  Biodistribution, Muscle: 0.07 ± 0.04 %IA/g
  Biodistribution, Salivary glands: 0.09 ± 0.05 %IA/g
  Biodistribution, Stomach: <0.05 %IA/g
In vivo; [5]
  Biodistribution, Heart: 0.18 ± 0.03 %IA/g
  Biodistribution, Kidneys: 6.1 ± 0.8 %IA/g
  Biodistribution, Lung: 2.0 ± 0.6 %IA/g
  Biodistribution, Spleen: 0.14 ± 0.05 %IA/g
In vivo; [6]
  Biodistribution, Blood: <0.05 %IA/g
  Biodistribution, Heart: <0.05 %IA/g
  Biodistribution, Kidneys: 0.75 ± 0.07 %IA/g
  Biodistribution, Lung: 0.13 ± 0.02 %IA/g
  Biodistribution, Spleen: 0.06 ± 0.01 %IA/g
[1]
  Fraction bound to human blood plasma proteins: 49 ± 2%
[2]
  Fraction bound to mouse blood plasma proteins: 42 ± 4%

## O=C(O)CN1CCN(CC(=O)O)CCN(CC(=O)NCCCC[C@H](NC(=O)CCCCCNC(=O)NCCCC[C@H](N[C@@H](CCc2ccccc2)C(=O)O)C(=O)N2CCC[C@H]2C(=O)O)C(=O)O)CCN(CC(=O)O)CC1 [[^67Ga]Ga-DOTA-LIS-01, metal not drawn]
physchem
  logD: -5.47 ± 0.17
In vitro; [7]
  fraction unbound at 30 min, 0.1 µM: 0.55
In vitro; [8]
  fraction unbound at 30 min, 0.1 µM: 0.54

## O=C(O)CN1CCN(CC(=O)O)CCN(CC(=O)NCCCC[C@H](NC(=O)CCCCCCCNC(=O)NCCCC[C@H](N[C@@H](CCc2ccccc2)C(=O)O)C(=O)N2CCC[C@H]2C(=O)O)C(=O)O)CCN(CC(=O)O)CC1 [[^67Ga]Ga-DOTA-LIS-02, metal not drawn]
In vivo; CD1/nude (Crl:CD1-Foxn nu)
  tissue uptake at 1 h: 0.24 ± 0.01 %ID/g
  tissue uptake at 3 h: 0.08 ± 0.03 %ID/g
In vivo; [9]
  tissue uptake at 1 h: 0.14 ± 0.01 %ID/g
  tissue uptake at 3 h: < 0.05 %ID/g
In vivo; [10]
  tissue uptake at 1 h: 14 ± 3 %ID/g
  tissue uptake at 3 h: 16 ± 1 %ID/g
In vivo; [11]
  tissue uptake at 1 h: 0.1 ± 0.03 %ID/g
  tissue uptake at 3 h: < 0.05 %ID/g
In vivo; [12]
  tissue uptake at 1 h: 0.18 ± 0.04 %ID/g
  tissue uptake at 3 h: < 0.05 %ID/g
In vivo; [13]
  tissue uptake at 1 h: 0.16 ± 0.05 %ID/g
In vivo; [14]
  tissue uptake at 3 h: < 0.05 %ID/g
In vivo; [15]
  tissue uptake at 1 h: 0.2 ± 0.06 %ID/g
  tissue uptake at 3 h: < 0.05 %ID/g
In vivo; [16]
  tissue uptake at 1 h: 6.3 ± 1 %ID/g
  tissue uptake at 3 h: 1.1 ± 0.2 %ID/g
In vivo; [17]
  tissue uptake at 1 h: 2.4 ± 0.7 %ID/g
  tissue uptake at 3 h: 0.21 ± 0.05 %ID/g
In vivo; [18]
  tissue uptake at 3 h: 0.05 ± 0.01 %ID/g
In vitro; [7]
  fraction unbound at 30 min, 0.1 µM: 0.5 ± 0.01
In vitro; [8]
  fraction unbound at 30 min, 0.1 µM: 0.54

## O=C(O)CN1CCN(CC(=O)O)CCN(CC(=O)NCCCC[C@H](NC(=O)CCCCCCCNC(=O)NCCCC[C@H](N[C@@H](CCc2ccccc2)C(=O)O)C(=O)N2CCC[C@H]2C(=O)O)C(=O)O)CCN(CC(=O)O)CC1 [[^67Ga]Ga-DOTA-LIS-02] [metal not drawn]
In vivo; [4]
  Biodistribution, Intestines: 0.22 ± 0.90 %IA/g
  Biodistribution, Liver: 0.76 ± 0.13 %IA/g
In vivo; [5]
  Biodistribution, Spleen: 0.51 ± 0.65 %IA/g

## O=C(O)CN1CCN(CC(=O)O)CCN(C(CCC(=O)NCCCC[C@H](NC(=O)CCCCCCCNC(=O)NCCCC[C@H](N[C@@H](CCc2ccccc2)C(=O)O)C(=O)N2CCC[C@H]2C(=O)O)C(=O)O)C(=O)O)CC1 (stereo partly shown) [[^67Ga]Ga-NODAGA-LIS-02, metal not drawn]
In vivo; CD1/nude (Crl:CD1-Foxn nu)
  tissue uptake at 1 h: 0.08 ± 0.01 %ID/g
  tissue uptake at 3 h: < 0.05 %ID/g
In vivo; [9]
  tissue uptake at 1 h: < 0.05 %ID/g
  tissue uptake at 3 h: < 0.05 %ID/g
In vivo; [10]
  tissue uptake at 1 h: 3.6 ± 0.9 %ID/g
  tissue uptake at 3 h: 5.2 ± 0.5 %ID/g
In vivo; [19]
  tissue uptake at 1 h: 23 ± 6 %ID/g
  tissue uptake at 3 h: 2.3 ± 1 %ID/g
In vivo; [20]
  tissue uptake at 1 h: 18 ± 1 %ID/g
  tissue uptake at 3 h: 9.6 ± 1.2 %ID/g
In vivo; [11]
  tissue uptake at 1 h: 0.11 ± 0.12 %ID/g
  tissue uptake at 3 h: < 0.05 %ID/g
In vivo; [12]
  tissue uptake at 1 h: < 0.05 %ID/g
  tissue uptake at 3 h: < 0.05 %ID/g
In vivo; [13]
  tissue uptake at 1 h: 0.31 ± 0.18 %ID/g
  tissue uptake at 3 h: 0.15 ± 0.1 %ID/g
In vivo; [14]
  tissue uptake at 3 h: < 0.05 %ID/g
In vivo; [15]
  tissue uptake at 1 h: < 0.05 %ID/g
  tissue uptake at 3 h: < 0.05 %ID/g
In vivo; [16]
  tissue uptake at 1 h: 1.7 ± 0.6 %ID/g
  tissue uptake at 3 h: 0.49 ± 0.13 %ID/g
In vivo; [17]
  tissue uptake at 1 h: 0.63 ± 0.06 %ID/g
  tissue uptake at 3 h: 0.11 ± 0.04 %ID/g
In vivo; [18]
  tissue uptake at 1 h: < 0.05 %ID/g
  tissue uptake at 3 h: < 0.05 %ID/g
physchem
  logD: -5.04 ± 0.09
In vitro; [7]
  fraction unbound at 30 min, 0.1 µM: 0.46
In vitro; [8]
  fraction unbound at 30 min, 0.1 µM: 0.51
